Targets include HIPK3(h) (human, UniProt Q9H422 161-562, limits assumed); CK2(h) (human); Met(Y1248D)(h) (human, UniProt P08581-2 974-1408, limits assumed); CDK9/cyclin T1(h) (human, UniProt P50750 1-372; O60563 1-726, limits assumed); CDK2/cyclinE(h) (human, UniProt P24941 1-298; P24941 1-298); Met(M1268T)(h) (human, UniProt P08581-2 974-1408, limits assumed); AMPKa1(h) (human, UniProt Q13131 1-559, limits assumed); RIPK2(h) (human, UniProt O43353 1-299, limits assumed); Rsk2(h) (human, UniProt P51812 1-740, limits assumed); Fer(h) (human, UniProt P16591 541-822, limits assumed); AMPKa2(h) (human, UniProt P54646 1-552, limits assumed); PKCγ(h) (human, UniProt P05129 1-697); Tie2(h) (human, UniProt Q02763 771-1124, limits assumed); Src(T341M)(h) (human, UniProt P12931 1-536, limits assumed); Ab1(Q252H)(h) (human, UniProt P00519 27-1130, limits assumed); CSK(h) (human, UniProt P41240 1-450); FGFR2(h) (human, UniProt P21802 456-770, limits assumed); DAPK2(h) (human, UniProt Q9UIK4 1-370, limits assumed).

Holding throughout (test): cell-based or functional assay
A further test has as its target T1, MST1(h) (human, UniProt Q13043 1-487, limits assumed).
T1 sequence (looked up): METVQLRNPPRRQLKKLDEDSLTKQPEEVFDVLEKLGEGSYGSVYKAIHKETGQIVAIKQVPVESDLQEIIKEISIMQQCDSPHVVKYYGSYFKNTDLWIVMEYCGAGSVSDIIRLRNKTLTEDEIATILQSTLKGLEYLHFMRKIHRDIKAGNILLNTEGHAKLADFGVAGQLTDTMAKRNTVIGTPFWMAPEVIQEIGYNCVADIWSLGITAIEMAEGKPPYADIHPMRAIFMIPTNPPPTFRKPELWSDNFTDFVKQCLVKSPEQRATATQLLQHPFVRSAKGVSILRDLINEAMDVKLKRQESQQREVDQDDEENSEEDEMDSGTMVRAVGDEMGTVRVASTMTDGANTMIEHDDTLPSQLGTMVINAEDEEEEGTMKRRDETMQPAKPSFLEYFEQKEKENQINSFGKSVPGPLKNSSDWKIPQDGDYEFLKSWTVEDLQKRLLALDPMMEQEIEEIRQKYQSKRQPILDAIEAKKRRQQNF

The target in a further test is T2, Txk(h) (human, UniProt P42681 1-527, limits assumed).
T2 sequence (looked up): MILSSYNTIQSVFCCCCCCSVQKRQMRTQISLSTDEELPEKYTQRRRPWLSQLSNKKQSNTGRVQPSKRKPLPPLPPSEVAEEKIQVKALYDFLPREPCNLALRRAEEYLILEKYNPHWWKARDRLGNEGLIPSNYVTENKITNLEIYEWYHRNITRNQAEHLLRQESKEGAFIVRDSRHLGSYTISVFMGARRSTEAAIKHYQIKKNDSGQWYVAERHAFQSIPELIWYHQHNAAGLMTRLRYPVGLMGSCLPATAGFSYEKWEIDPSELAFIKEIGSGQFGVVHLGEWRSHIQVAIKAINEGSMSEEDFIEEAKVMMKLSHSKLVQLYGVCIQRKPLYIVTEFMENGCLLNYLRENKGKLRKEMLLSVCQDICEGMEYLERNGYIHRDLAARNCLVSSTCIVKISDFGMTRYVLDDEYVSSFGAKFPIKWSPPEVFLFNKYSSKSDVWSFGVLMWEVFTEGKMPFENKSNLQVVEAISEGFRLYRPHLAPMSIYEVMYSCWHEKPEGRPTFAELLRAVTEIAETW

Another test deals with T3, PDK1(h) (human, UniProt O15530 1-556, limits assumed).
T3 sequence (looked up): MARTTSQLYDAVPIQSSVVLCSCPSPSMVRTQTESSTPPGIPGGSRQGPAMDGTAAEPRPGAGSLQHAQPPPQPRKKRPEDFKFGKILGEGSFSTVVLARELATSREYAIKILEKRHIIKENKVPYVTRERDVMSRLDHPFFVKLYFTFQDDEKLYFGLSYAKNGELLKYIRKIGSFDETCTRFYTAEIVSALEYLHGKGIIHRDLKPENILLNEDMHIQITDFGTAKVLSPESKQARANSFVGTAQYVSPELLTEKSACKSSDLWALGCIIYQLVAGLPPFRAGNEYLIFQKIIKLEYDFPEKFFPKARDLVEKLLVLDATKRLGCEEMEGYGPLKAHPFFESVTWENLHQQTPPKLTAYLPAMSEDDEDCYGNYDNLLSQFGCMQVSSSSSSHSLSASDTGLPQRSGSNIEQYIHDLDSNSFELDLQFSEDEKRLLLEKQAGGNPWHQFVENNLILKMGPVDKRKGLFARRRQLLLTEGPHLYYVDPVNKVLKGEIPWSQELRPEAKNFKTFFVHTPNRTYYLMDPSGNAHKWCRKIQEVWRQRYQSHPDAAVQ

B1: MMI-0300 (peptide)
peptide: FAKLAARLYRKALARQLGVAA
For the molecule B1, the “% activity” value with HIPK3(h) is 93%; with CK2(h) it was 90%; with Met(Y1248D)(h), 102%; with CDK9/cyclin T1(h), 91%; in the test with CDK2/cyclinE(h) it was 94%; with Met(M1268T)(h) it was 255%. Moreover, the “% activity” value in the test with AMPKa1(h) stood at 71%; in the test with MST1(h), 14%; with RIPK2(h), 97%; with Rsk2(h), 51%; with Txk(h), 48%; with Fer(h), 130%. Moreover, the “% activity” value is 135% with PDK1(h); 54% in the test with AMPKa2(h); 89% in the test with PKCγ(h); 26% with Tie2(h); 70% with Src(T341M)(h); 82% in the test with Ab1(Q252H)(h). For the same molecule, the “% activity” value stood at 49% with CSK(h), 14% with FGFR2(h) and 32% with DAPK2(h).

B2: MMI-0400 (peptide)
peptide: KAFAKLAARLYRKALARQLGVAA
With B2, the “% activity” value in the test with HIPK3(h) was 105%; in the test with CK2(h) it was 101%; with Met(Y1248D)(h), 31%; with CDK9/cyclin T1(h), 235%; with CDK2/cyclinE(h), 83%; in the test with Met(M1268T)(h) it was 265%. Further, the “% activity” value with AMPKa1(h) was 87%; with MST1(h), 6%; in the test with RIPK2(h) it was 98%; in the test with Rsk2(h) it was 38%; with Txk(h), 37%; with Fer(h), 108%. Also, the “% activity” value turned out to be 159% with PDK1(h); 58% with AMPKa2(h); 79% in the test with PKCγ(h); 21% in the test with Tie2(h); 76% in the test with Src(T341M)(h); 98% in the test with Ab1(Q252H)(h). The “% activity” value came to 16% with CSK(h), 18% with FGFR2(h) and 16% with DAPK2(h).
